# Measurements taken from PMC6448830.
# Target: HA-2B4 (A. trivirgatus 2B4 ectodomain fused to human 2B4 from residue 219 to the stop codon), on COS-7 cells (Aotus trivirgatus | human) (UniProt Q9BZW8)
# Test: flow cytometry on cells; cells incubated with the Fc fusion protein (8 μg/mL or a range of concentrations), then anti-human IgG (Fc specific) mAb and anti-mouse IgG-PE; 20% rabbit serum and 1% fetal bovine serum in PBS
substance,measurement,value
A43-Fc fusion protein,percent of 2B4-transfected COS-7 cells binding A43-Fc (highest dose),80.9%
